Data set [1] addresses T1, MtrA (unphosphorylated) (UniProt P9WGM7).
T1 sequence: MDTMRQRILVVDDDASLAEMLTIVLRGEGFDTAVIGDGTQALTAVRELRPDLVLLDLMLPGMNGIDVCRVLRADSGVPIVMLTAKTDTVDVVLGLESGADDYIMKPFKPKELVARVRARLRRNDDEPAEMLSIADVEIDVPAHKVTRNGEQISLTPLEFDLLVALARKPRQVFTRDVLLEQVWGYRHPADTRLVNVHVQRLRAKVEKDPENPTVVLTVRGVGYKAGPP
Put plainly: EMSA. The conditions noted are these: 50 mM Tris-HCl pH 7.5, 50 mM NaCl, 10 mM MgCl2, 10 mM CaCl2, […].

For data set [2], the target named is T2, MtrA~P (UniProt P9WGM7).
T2 sequence: T1 sequence
Put plainly: EMSA. Particulars: 50 mM Tris-HCl pH 7.5, 50 mM NaCl, 10 mM MgCl2, 10 mM CaCl2, poly dI/dC and sheared salmon sperm DNA (1 ug), 37 C 15 min; 200 fmol DNA, 1-10 uM protein; 5% …. In general terms: Mobility shift assays separate free from complexed probe on a gel.

In the case of “TCGACTCAGATCTCCTAGGGCTCAACTCGGAGGGACAGCGCAGGTCAACGCCAACGACACCACAAGCATCATTTGCACCGTACGTCACATCTGACGCTATGGAAACGTAAGTCACAAACTGCCCCCGGTACGTGCGACTAATGTGACCCAACGGTGACCTCGCGCGTTTGCCGCAAACAACCGCCCGGTTAGCGCGGCAA (double strand) [PripA]”, the binding result in data set [1] and in data set [2] was “binds” throughout.

As for “CTGTGCAGAGTAGGTGATCGGCGGCCCGACCGCGAGGAGCCGCGCTGTGACTGGCGGGACGAAAGTTACAGATGAAGATATTTGCGTCCGGTGTCGGTGAGCACGCTGCGCAGGATGGTTTCGATGGTGTCGAACTCGGGCTGTCCGCTAATCAGCGGGGGAGCCACCTGGACGACGGGGTCCCCGCGGTCGTCGGTG (double strand) [PdacB1]”, the binding result in data set [2] is listed as “binds”.

These data come from PMC6265350.
